Results reported in US20080311034A1 (published 2008).

Experiments:
[1] = target: T1, recombinant human His-tagged FcγRI (extracellular domain, R&D Systems #1257-FC-050) (human, UniProt P12314 16-292); assay: ELISA
T1 construct: extracellular domain; Bought; also called CD64; recombinant, soluble, human FcγRI

[2] = target: T2, recombinant human His-tagged FcγRIIa (R&D Systems #1330-CD-050) (human, UniProt P12318 36-218, limits assumed); assay: AlphaScreen
T2 construct: Bought; also called CD32a; recombinant, soluble, human FcγRIIa
T2 sequence (looked up): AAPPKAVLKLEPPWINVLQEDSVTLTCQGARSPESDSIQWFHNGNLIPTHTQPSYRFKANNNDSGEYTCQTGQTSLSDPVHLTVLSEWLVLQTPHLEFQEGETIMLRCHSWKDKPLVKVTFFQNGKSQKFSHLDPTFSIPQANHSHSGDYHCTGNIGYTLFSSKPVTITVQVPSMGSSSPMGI
Procedure: (§1) FcγRIIa (CD32a) AlphaScreen—Nickel acceptor beads (Perkin Elmer #6760619C) were diluted 1:50 in assay buffer (PBS, pH 7.4, 4 mg/ml BSA, 0.01% Tween-20), and 27.5 μl were added to each well of a Nunc V-bottom polypropylene plate (VWR # 62409-108) (Powers G., Notebook 9006, pp. 169-175, 182-185). A 2.0 μg/ml solution of recombinant human His-tagged FcγRIIa (R&D Systems #1330-CD-050) was prepared in assay buffer and 27.5 μl added to each well of a separate Nunc V bottom polypropylene plate. Titrations of test Abs were prepared in the Nunc V bottom polypropylene plate starting at 30 μg/ml. A 2 μg/ml solution of biotinylated goat F(ab′)₂ anti-human IgG F(ab′)₂ (Jackson Immunoresearch #109-066-097) was prepared in assay buffer and 27.5 μl added to each well of another Nunc V bottom polypropylene plate. A 1:50 dilution of streptavidin donor beads (PerkinElmer # 6760002) was prepared in assay buffer and 27.5 μl added to each well of another Nunc V bottom polypropylene plate. A volume of 5 μl of each reagent was added to the corresponding quadrants of a low-volume, non-binding white 384-well plate (Corning # 3673) in the following order: acceptor beads, FcγRIIa, test Ab, biotinylated anti-human IgG F(ab′)₂, and streptavidin donor beads. The plates were incubated for 30 minutes with shaking and the O.D.s determined using an Envision plate reader.
(§2) FcγRIIb (CD32b) AlphaScreen—The assay was performed as described above for FcγRIIa except that FcγRIIa was replaced with FcγRIIb (R&D Systems #1875-CD-050).

[3] = target: T3, recombinant human FcγRIIb (R&D Systems #1875-CD-050) (human, UniProt P31994 46-217, limits assumed); assay: AlphaScreen
T3 construct: Bought; also called CD32b; recombinant, soluble, human FcγRIIb
T3 sequence (looked up): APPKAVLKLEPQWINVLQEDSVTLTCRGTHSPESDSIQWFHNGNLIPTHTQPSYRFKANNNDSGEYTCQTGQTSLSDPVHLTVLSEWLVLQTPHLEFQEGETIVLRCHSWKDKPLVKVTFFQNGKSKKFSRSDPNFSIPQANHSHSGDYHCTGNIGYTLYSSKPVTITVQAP
Procedure: as §1, §2

T1 sequence (P12314 16-292): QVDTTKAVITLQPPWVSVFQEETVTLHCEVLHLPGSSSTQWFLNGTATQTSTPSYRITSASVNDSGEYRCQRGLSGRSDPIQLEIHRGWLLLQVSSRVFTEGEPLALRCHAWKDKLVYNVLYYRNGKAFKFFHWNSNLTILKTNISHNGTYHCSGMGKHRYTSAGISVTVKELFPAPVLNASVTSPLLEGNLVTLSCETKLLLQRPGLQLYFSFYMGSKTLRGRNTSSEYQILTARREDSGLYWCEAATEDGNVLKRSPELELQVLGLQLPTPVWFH

fold reduced binding [1]: < 2 fold
fold reduced binding [2]: 8 fold
fold reduced binding [3]: 500 fold
B1: YB2/0-CNTO 860 A330I (antibody, IgG1)
heavy: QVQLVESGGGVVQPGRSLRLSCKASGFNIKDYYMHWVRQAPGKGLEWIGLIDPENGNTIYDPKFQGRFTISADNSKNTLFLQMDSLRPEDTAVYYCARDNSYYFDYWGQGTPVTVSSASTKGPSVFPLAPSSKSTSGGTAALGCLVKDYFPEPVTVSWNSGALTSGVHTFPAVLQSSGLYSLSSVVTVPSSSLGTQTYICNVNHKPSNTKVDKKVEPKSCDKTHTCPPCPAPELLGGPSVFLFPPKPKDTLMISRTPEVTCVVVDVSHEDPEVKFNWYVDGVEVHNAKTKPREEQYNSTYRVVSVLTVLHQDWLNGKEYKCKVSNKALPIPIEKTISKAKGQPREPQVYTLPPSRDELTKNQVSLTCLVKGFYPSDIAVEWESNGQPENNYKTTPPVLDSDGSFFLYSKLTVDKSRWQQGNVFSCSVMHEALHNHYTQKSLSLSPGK
light: DIQMTQSPSSLSASVGDRVTITCKASQDIRKYLNWYQQKPGKAPKLLIYYATSLADGVPSRFSGSGSGTDYTFTISSLQPEDIATYYCLQHGESPYTFGQGTKLEITRTVAAPSVFIFPPSDEQLKSGTASVVCLLNNFYPREAKVQWKVDNALQSGNSQESVTEQDSKDSTYSLSSTLTLSKADYEKHKVYACEVTHQGLSSPVTKSFNRGEC
modifications: N-linked glycan at heavy chain Asn297 (YB2/0-type, low fucose); not carried by the letters
notes: IgG1/kappa Fc variant; stably expressed in YB2/0 cells (p4177/p2402); EU numbering; also called A330I (YB2/0 cell-derived); A330I mutant expressed in YB2/0 cells; copies: 2 + 2
